Test results as given in patent US20260085127A1 (BRIGHTPATH BIOTHERAPEUTICS, published 2026).
Several values for one entry are separate records, joined by “and”; a condition that tells them apart may be missing. Equal values may be shown once. Read-outs that look alike come from different tables or passages of the source. One block for each binder: values may come before it.

Legend:
[1] = biological target: T1, human TIM-3 (Accession No. JX049979.1) stably expressed on cells (human, UniProt Q8TDQ0 22-301); experiment: flow cytometry, 293T/TIM-3 cells, KD from MFI
T1 construct: whole, on cells; On Jurkat or 293T cells; also called Jurkat/TIM-3; 293T/TIM-3

[2] = biological target: T1, human TIM-3 (Accession No. JX049979.1) …; experiment: flow cytometry, Jurkat/TIM-3 cells, KD from MFI
[3] = biological target: T1, human TIM-3 (Accession No. JX049979.1) …; experiment: flow cytometry, 293T/TIM-3 + CD39 cells, KD from MFI
[4] = biological target: T1, human TIM-3 (Accession No. JX049979.1) …; experiment: flow cytometry, Jurkat/TIM-3 + CD39 cells, KD from MFI
[5] = biological target: T2, biotinylated human TIM-3-Fc antigen (in-house product, SEQ ID No: 118) (human, biotinylated); experiment: flow cytometry, inhibition of biotinylated TIM-3-Fc binding to phosphatidylserine on apoptotic Jurkat cells
[6] = biological target: T2, biotinylated human TIM-3-Fc antigen …; experiment: as above; remark: listed apart in the source
[7] = biological target: T3, human CD39 (Accession No. NM_001776.6) expressed on cells (human, UniProt P49961 1-510); experiment: flow cytometry on a mix of Jurkat, Jurkat/TIM-3, Jurkat/CD39 and Jurkat/TIM-3+CD39 cells in one well, antibody at 0.1 nM, BV421-anti-hIgG, MFI of BV421 per cell group
T3 construct: whole, on cells; On Jurkat, 293T or SK-MEL28 cells; also called Jurkat/CD39; 293T/CD39
T3 sequence (looked up): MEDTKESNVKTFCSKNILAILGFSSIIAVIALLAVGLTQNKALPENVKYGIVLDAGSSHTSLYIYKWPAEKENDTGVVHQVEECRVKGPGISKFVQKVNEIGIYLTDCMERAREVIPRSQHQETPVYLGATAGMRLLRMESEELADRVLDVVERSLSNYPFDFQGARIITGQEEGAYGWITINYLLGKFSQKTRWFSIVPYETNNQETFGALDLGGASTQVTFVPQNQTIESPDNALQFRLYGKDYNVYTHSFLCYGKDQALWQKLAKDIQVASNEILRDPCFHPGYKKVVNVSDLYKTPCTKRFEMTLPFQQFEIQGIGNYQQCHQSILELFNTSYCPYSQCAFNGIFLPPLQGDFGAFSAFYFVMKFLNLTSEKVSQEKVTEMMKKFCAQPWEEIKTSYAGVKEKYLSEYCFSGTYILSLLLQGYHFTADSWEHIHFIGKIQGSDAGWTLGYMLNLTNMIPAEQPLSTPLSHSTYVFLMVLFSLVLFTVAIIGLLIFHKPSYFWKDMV

[8] = biological target: T2, biotinylated human TIM-3-Fc antigen …; experiment: competition ELISA: human Galectin-9 coated, biotinylated human TIM-3-Fc pre-mixed with the antibody dilution series, Streptavidin-HRP, A450; blocked ligand: human Galectin-9
[9] = biological target: T2, biotinylated human TIM-3-Fc antigen …; experiment: as above; remark: listed apart in the source
[10] = biological target: T2, biotinylated human TIM-3-Fc antigen …; experiment: as above; remark: listed apart in the source
[11] = biological target: T3, human CD39 (Accession No. NM_001776.6) …; experiment: flow cytometry, 293T/CD39 cells, KD from MFI
[12] = biological target: T1, human TIM-3 (Accession No. JX049979.1) …; experiment: flow cytometry, 293T/TIM-3 cells, KD from MFI; remark: listed apart in the source
[13] = biological target: T4, recombinant human CD39 (in-house product, 38 to 478 aa of Accession No. NM_001776.6) (human, UniProt P49961 38-478); experiment: SPR Biacore8K, antibody captured on anti-human IgG, antigen as analyte
T4 construct: also called rhCD39; human CD39-ECD; not shown: Myc and His tags at the C-terminus are named only for the PE-lab
T4 sequence (looked up): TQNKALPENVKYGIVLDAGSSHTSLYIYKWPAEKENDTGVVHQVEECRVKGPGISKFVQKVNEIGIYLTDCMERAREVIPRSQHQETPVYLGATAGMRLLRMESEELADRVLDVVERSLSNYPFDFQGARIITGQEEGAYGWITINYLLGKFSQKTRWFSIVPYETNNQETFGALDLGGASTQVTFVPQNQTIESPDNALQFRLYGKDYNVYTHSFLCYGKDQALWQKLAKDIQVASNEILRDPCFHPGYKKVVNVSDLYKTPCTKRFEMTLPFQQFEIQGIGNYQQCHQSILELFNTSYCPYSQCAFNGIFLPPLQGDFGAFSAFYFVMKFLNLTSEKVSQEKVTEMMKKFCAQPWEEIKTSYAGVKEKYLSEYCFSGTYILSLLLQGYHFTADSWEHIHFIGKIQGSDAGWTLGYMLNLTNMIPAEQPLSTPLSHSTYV

[14] = biological target: T2, biotinylated human TIM-3-Fc antigen …; experiment: flow cytometry, inhibition of biotinylated TIM-3-Fc binding to phosphatidylserine on apoptotic Jurkat cells; remark: listed apart in the source
[15] = biological target: T3, human CD39 (Accession No. NM_001776.6) …; experiment: flow cytometry, 293T/CD39 cells, KD from MFI; remark: listed apart in the source
[16] = biological target: T3, human CD39 (Accession No. NM_001776.6) …; experiment: flow cytometry, 293T/TIM-3 + CD39 cells, KD from MFI
[17] = biological target: T1, human TIM-3 (Accession No. JX049979.1) …; experiment: flow cytometry on a mix of Jurkat, Jurkat/TIM-3, Jurkat/CD39 and Jurkat/TIM-3+CD39 cells in one well, antibody at 1 nM, BV421-anti-hIgG, MFI of BV421 per cell group
[18] = biological target: T3, human CD39 (Accession No. NM_001776.6) …; experiment: as above

B3: I67_Hu003_Fsc (bispecific antibody, not shown: a dimerising Fc or GST)
VH: DVQLQESGPSLVQPSQSLSINCTVSGFSLSSYGVHWVRQSPGKGLEWLGVIWRRGSTDYNAAFMSRLSITKDNSKSQVFFKMNRLQADDTATYYCAKGISTATSWFAYWGQGTLVTVSA
VL: DIVMTQSHKFMSTSVGDRVSVTCKASQNVGTNVAWYQQKPGQSPKALIYSASYRYSGVPDRFTGSGSGTDFTLTISNVQSEDLAEYFCQQYNSYPLTFGAGTKLELK
scFv: QVQLQESGGGLVKPGGSLKLSCAASGFTFSSYYMSWVRQTPDKRLEWVATISNSGGSTYYPDSVKDRFTISRDNAKNTLYLQMSSLKSEDTAMYYCARDPYYTNYVPMDYWGQGTMVTVSSGGGGSGGGGSGGGGSGGGGSDIVMTQSPSFLSASVGDRVTITCKASQYVDTYVAWYQQRPGKAPKPLIYSASTRHTGVPSRFSGSGSGTEFTLTISSLQPEDFATYFCAQYSSSPLTFGGGTKLELK
notes: Fab-scFv-Fc heterodimer: anti-CD39 Fab I67 (Knob)
- Kd [12]: 4.78 nM
- IC50 [14]: 25.2 nM

B4: 6-3hIG_LA (antibody, V domains shown)
VH: QVQLVQSGAELVKPGASVKLSCKASGFSIKDTYVHWVKQAPGKGLEWIGKIDPANVNTKFDPKFQGRVTITADTSTNTAYLQLSSLRSEDTAVYYCALYGYDDDAYYFDYWGQGTLVTVSS
VL: EIVLTQSPASLSVSPGERATISCRASESVDNYGISFMNWFQQKPGQAPKLLIYAASNQGSGVPARFSGSGSGTDFTLTISSLEPEDFAVYYCQQSKEVPYTFGQGTKLEIK
notes: IgG1LALA homodimeric antibody; also called IgG1LALA homodimeric antibody of anti-CD39 antibody (humanized) 6-3hIG
- Kd [15]: 7.04 nM
- Kd [16]: 16.8 nM
- Kd [13]: 0.629 nM
- koff [13]: 0.000193 s⁻¹
- kon [13]: 307000 M⁻¹ s⁻¹
- binding result [17]: no binding (tested: 1 nM)

B6: Hu003_13_F20_LA (antibody, V domains shown)
VH: QVQLQESGGGLVKPGGSLKLSCAASGFTFSSYYMSWVRQTPDKRLEWVATISNSGGSTYYPDSVKDRFTISRDNAKNTLYLQMSSLKSEDTAMYYCARDPYYTNYVPMDYWGQGTMVTVSS
VL: DIVMTQSPSFLSASVGDRVTITCKASQYVDTYVAWYQQRPGKAPKPLIYSASTRHTGVPSRFSGSGSGTEFTLTISSLQPEDFATYFCAQYSSSPLTFGGGTKLELK
notes: IgG1LALA homodimeric antibody (IgG1 with L234A and L235A); also called Hu003_LA; Hu003-LA
- IC50 [14]: 8.93 nM and 7.11 nM and 8.51 nM and 12.3 nM
- binding result [18]: no binding (tested: 1 nM)

Other lines, results leading:

- Kd [1]: 2.72 nM
- Kd [2]: 0.274 nM
- Kd [3]: 3.86 nM
- Kd [4]: 0.339 nM
- IC50 [5]: 16.7 nM and 6.66 nM and 8.42 nM
- IC50 [6]: 8.56 nM and 8.62 nM
- binding result [7]: no binding (tested: 0.1 nM)
- IC50 (read off the curve) [8]: ~0.5 nM and ~1 nM
- IC50 (read off the curve) [9]: ~0.5 nM and ~0.3 nM
- IC50 (read off the curve) [10]: ~1 nM
B1: Hu003_13_F20_sc (antibody)
scFv: B3 scFv
notes: scFv-Fc homodimer, anti-TIM-3; also called scFv-Fc homodimeric antibody of anti-TIM-3_scFv antibody (humanized) Hu003_13_F20; not shown: GGGG linker and Fc-LALA (IgG1 Fc with L234A and L235A)

- Kd [11]: 11.4 nM
- Kd [12]: 8.66 nM
- Kd [13]: 0.334 nM
- IC50 [6]: 16.5 nM
- IC50 (read off the curve) [9]: ~3 nM
B2: HuP4_IB_Hu003 (bispecific antibody)
chain 1: QVQLLESGPELVKPSATLSITCTVSGFSLTNYGVHWIRQAPGKGLEWLGVILRRGSTDYNAAFMSRFTISKDNSKNQVYFKLRSVTAEDTAVVAGDYFDYWGQGTMVTVSSGGGGSGGGGSGGGGSGGGGSDIQMTQSHSTLSLSVGDRVTITCKASQNVGTNVAWYQQKPGQPPKALIYSASYRYSGVPSRFSGSGSGTDFTLTISSVQAEDVAVYYCQQYNSYPLTFGPGTKLEIK
chain 2: B3 scFv

- Kd [2]: 26.8 nM
- Kd [4]: 31.2 nM
- binding result [7]: no binding (tested: 0.1 nM)
B5: Hu072_11_sc (antibody)
scFv: QVQLQESGGGLVKPGGSLKLSCAASGFTFSSYYMSWVRQTPDKRLEWVATISNSGGSTYYPDSVKDRFTISRDNAKNTLYLQMSSLKSEDTAMYYCARDPYYTNYVPMDYWGQGTMVTVSSGGGGSGGGGSGGGGSGGGGSDIVMTQSPDSLAVSLGERVTLSCKASENVGTYVSWYQQKPRQPPKLLIYGASNRYTGVPDRFSGSGSGTDFTLTISSLQAEDVALYYCGQSYSYPLTFGQGTRLEIK
notes: scFv-Fc homodimer, anti-TIM-3; also called scFv-Fc homodimeric antibody of anti-TIM-3_ScFv antibody Hu072_11; not shown: GGGG linker and Fc-LALA (IgG1 Fc with L234A and L235A)
